Laboratory results reported in patent US20210324359A1, “USE OF GRAM-NEGATIVE LYSIN-ANTIMICROBIAL PEPTIDE (AMP) POLYPEPTIDE CONSTRUCTS IN TREATING ENDOCARDITIS” (priority 2020, published 2021).
Entries after “also recorded” stand apart in the source; their conditions may differ. Read-outs that look alike come from different tables or passages of the source.

Key:
P. aeruginosa = assay: MIC, modified CLSI broth microdilution in CAA medium without or with […] human serum (Table 4); type: cell-based, Pseudomonas aeruginosa; for CAA/HuS MIC: CAA supplemented with 2.5% human serum
Description: 2015. […] Clinical and Laboratory Standards Institute, Wayne, Pa.

[1] = test system: Pseudomonas aeruginosa strain CFS-1292 (meropenem resistant); details: strain CFS-1292; no added cations
Experimental: The activity of selected GN lysins and constructs in the presence of divalent cations was evaluated, and the impact of divalent cations at physiological concentrations was examined in the MIC assay format.

[2] = test system: P. aeruginosa strain WC-453; assay: Time-kill assay in HEPES or CAA with 25% human serum (Tables 7, 8); type: cell-based, Pseudomonas aeruginosa
Experimental: Exponential phase bacteria were then pelleted and resuspended in 1/5 culture volume of 25 mM HEPES, pH 7.4 before a final adjustment to an optical density corresponding to a McFarland value of 0.5. […] All treatments were incubated at 37° C. with aeration. At time points before the addition of lysin (or buffer control) and at 1 hour and 3 hours intervals thereafter, culture samples were removed for quantitative plating on CAA agar plates.

[3] = test system: Pseudomonas aeruginosa strain CFS-1292 (meropenem resistant); assay: MIC in 25% CAA alone, with […] human serum or […] SURVANTA (Table 13); type: cell-based
Experimental: Materials and methods: MICs were determined by broth microdilution in media supplemented with human serum and pulmonary surfactant ([…]®; Myoderm Clinical Supplies). Minimal biofilm eradicating concentrations (MBECs) were determined using standard methods. […] Fluorescence microscopy was performed after LIVE/DEAD staining (ThermoFisher) and TEM was performed.

[4] = test system: outer membrane of P. aeruginosa (CFS 1292); assay: N-phenyl-1-napthylamine (NPN) uptake assay, outer membrane destabilization (Table 15); type: cell-based, Pseudomonas aeruginosa; details: NPN fluorescence, buffer = 100, lysin 100 μg/well
Experimental: The ability of gram-negative lysins to destabilize the outer membrane of P. aeruginosa was evaluated through the use of an N-phenyl-1-napthylamine (NPN) uptake assay. […] NPN was added to a final concentration of […]. […] Changes in fluorescence were recorded (excitation 1=350 nm; emission 1=420 nm) over two hours.

P. aeruginosa strains = assay: Checkerboard synergy with meropenem in 25% CAA and […] human serum (Table 16); type: cell-based, Pseudomonas aeruginosa; details: for FICI value (Run #1), with meropenem / FICI value (Run #2), with meropenem: 25% CAA and […] human serum
[5] = test system: P. aeruginosa PA20 recovered from rabbit lung homogenates; type: cell-based, Pseudomonas aeruginosa; details: for number of isolates with GN370 MIC 1 μg/mL / number of isolates with GN370 MIC 2 μg/mL: n=48
[6] = test system: P. aeruginosa strain PA453; assay: Time-kill assay of GN370 in animal blood (Table 34); type: cell-based, Pseudomonas aeruginosa; details: Dog blood, limit of detection 1.6
Description: The results are shown below in Table 34, wherein survival is reported as Log10 CFU/mL and wherein the limit of detection was 1.6 Log10 CFU/mL.

[7] = isolates from GN370 (3 mg/kg) + Meropenem (20 mg/kg) group
[8] = isolates from GN370 (30 mg/kg) + Meropenem (20 mg/kg) group
[9] = isolates from GN370 (30 mg/kg) group
[10] = isolates from Vehicle control group

B1: GN370: lysin-AMP construct: MIDR, FIRL and NPTH moieties N-terminal to GN202 lysin (SEQ ID NO: 44) (protein)
chain: MIDRFIRLNPTHGPRRPRRPGRRAPVRTSQRGIDLIKSFEGLRLSAYQDSVGVWTIGYGTTRGVTRYMTITVEQAERMLSNDIQRFEPELDRLAKVPLNQNQWDALMSFVYNLGAANLASSTLLDLLNKGDYQGAADQFPHWVNAGGKRLDGLVKRRAAERALFLEPLS
CAA MIC (P. aeruginosa; CAA medium, no human serum): 16000 µg/mL
CAA/HuS MIC (P. aeruginosa; CAA supplemented with […] human serum): 4000 µg/mL
MIC in 25% CAA [1]: 4 µg/mL
bactericidal activity (CFU decrease of 3-Log10, 3 hours after the addition of lysin) ([2]; 10 μg/mL, enumerated lysins in CAA/HuS, general statement for HEPES and CAA/HuS): bactericidal activity
CAA/HuS (Log10 CFU/mL), 1 hr ([2]; CAA + 25% human serum, lysin 10 μg/ml, 1 hr, WC-453): 4.0 Log10 CFU/mL
CAA/HuS (Log10 CFU/mL), 3 hr ([2]; CAA + 25% human serum, lysin 10 μg/ml, 3 hr, WC-453): <3.7 Log10 CFU/mL
MIC in […] Survanta [3]: 2 µg/mL
MIC in human serum ([…]) in CAA [3]: 2 µg/mL
activity in human serum and pulmonary surfactant [3]: active in human serum and pulmonary surfactant
25% CAA MIC ([3]; media alone): 4
% RFU ([4]; 5 minutes): 205 % RFU
% RFU ([4]; 10 minutes): 217 % RFU
% RFU ([4]; 20 minutes): 213 % RFU
% RFU ([4]; 40 minutes): 198 % RFU
% RFU ([4]; 60 minutes): 193 % RFU
% RFU ([4]; 100 minutes): 184 % RFU
synergy with meropenem (P. aeruginosa strains; FICI less than or equal to 0.5 = potent synergy): exhibited synergy with meropenem
FICI value (Run #1), with meropenem (P. aeruginosa strains; strain CFS 1292): 0.1875
FICI value (Run #2), with meropenem (P. aeruginosa strains; strain CFS 1292): 0.219
FICI value (Run #1), with meropenem (P. aeruginosa strains; strain CFS 1557 (PA19)): 0.1875
FICI value (Run #2), with meropenem (P. aeruginosa strains; strain CFS 1557 (PA19)): 0.240
FICI value (Run #1), with meropenem (P. aeruginosa strains; strain CFS 1558 (PA20)): 0.09375
FICI value (Run #2), with meropenem (P. aeruginosa strains; strain CFS 1558 (PA20)): 0.109
FICI value (Run #2), with meropenem (P. aeruginosa strains; strain CFS 1559 (PA21)): 0.438
FICI value (Run #2), with meropenem (P. aeruginosa strains; strain CFS 1560 (PA22)): 0.198
FICI value (Run #2), with meropenem (P. aeruginosa strains; strain CFS 1561 (PA23)): 0.240
FICI value (Run #2), with meropenem (P. aeruginosa strains; strain CFS 1562 (PA24)): 0.240
FICI value (Run #2), with meropenem (P. aeruginosa strains; strain CFS 1766 (ATCC 27853)): 0.156
ex vivo resistance / increase in MIC of isolates recovered from rabbit lung ([5]; all treatment groups of the rabbit pulmonary model): not observed; also recorded: no increase in MIC
number of isolates with GN370 MIC 1 μg/mL [5, 7]: 34
number of isolates with GN370 MIC 2 μg/mL [5, 7]: 14
number of isolates with GN370 MIC 2 μg/mL ([5]; isolates from GN370 (3 mg/kg) group): 16
number of isolates with GN370 MIC 1 μg/mL ([5]; isolates from GN370 (10 mg/kg) + Meropenem (20 mg/kg) group): 48
number of isolates with GN370 MIC 2 μg/mL ([5]; isolates from GN370 (10 mg/kg) group): 16
number of isolates with GN370 MIC 1 μg/mL [5, 8]: 35
number of isolates with GN370 MIC 2 μg/mL [5, 8]: 13
number of isolates with GN370 MIC 1 μg/mL [5, 9]: 16
number of isolates with GN370 MIC 2 μg/mL [5, 9]: 32
number of isolates with GN370 MIC 2 μg/mL ([5]; isolates from Meropenem (20 mg/kg) group): 16
number of isolates with GN370 MIC 2 μg/mL ([5]; isolates from Pre-treatment control group): 48
number of isolates with GN370 MIC 1 μg/mL [5, 10]: 13
number of isolates with GN370 MIC 2 μg/mL [5, 10]: 35
Log10 CFU/mL of P. aeruginosa ([6]; 2 hours, GN370 4 μg/mL): 3.5 Log10 CFU/mL
Log10 CFU/mL of P. aeruginosa ([6]; 2 hours, GN370 20 μg/mL): 1.6 Log10 CFU/mL
Log10 CFU/mL of P. aeruginosa ([6]; 2 hours, GN370 50 μg/mL): 1.6 Log10 CFU/mL
Log10 CFU/mL of P. aeruginosa ([6]; 2 hours, GN370 100 μg/mL): 1.6 Log10 CFU/mL
Log10 CFU/mL of P. aeruginosa ([6]; 2 hours, GN370 200 μg/mL): 1.6 Log10 CFU/mL
Log10 CFU/mL of P. aeruginosa ([6]; 4 hours, GN370 4 μg/mL): 4.7 Log10 CFU/mL
Log10 CFU/mL of P. aeruginosa ([6]; 4 hours, GN370 20 μg/mL): 1.6 Log10 CFU/mL
Log10 CFU/mL of P. aeruginosa ([6]; 4 hours, GN370 50 μg/mL): 1.6 Log10 CFU/mL
Log10 CFU/mL of P. aeruginosa ([6]; 4 hours, GN370 100 μg/mL): 1.6 Log10 CFU/mL
Log10 CFU/mL of P. aeruginosa ([6]; 4 hours, GN370 200 μg/mL): 1.6 Log10 CFU/mL
Log10 CFU/mL of P. aeruginosa ([6]; 24 hours, GN370 4 μg/mL): 7.2 Log10 CFU/mL
